Reference: PMC7383930 (Journal of Medicinal Chemistry, 2020)

Experiments:
[1] = molecular target: purified extracellular domain of PSMA (prostate-specific membrane antigen), residues 44–750 (human, UniProt Q04609); test: SPR; ProteOn XPR36 chip; each NB (0.2 μg) immobilised by amine coupling (sulfo-NHS/EDC, 10 mM sodium acetate pH 5.0); soluble PSMA flowed at 25 μL/min (25-3200 pM for NB7; 2.94-47.00 nM for NB8, NB13, NB37); dissociation in PBST (0.005% Tween); BSA surface subtracted; Langmuir 1:1 kinetic model; 25 °C; conditions: both partners purified
[2] = molecular target: PSMA on PC3-PIP (PSMA+) prostate cancer cells (Homo sapiens, UniProt Q04609); test: cell-based or functional assay
PSMA on PC3-PIP (PSMA+) prostate cancer cells, sequence (Q04609 whole entry): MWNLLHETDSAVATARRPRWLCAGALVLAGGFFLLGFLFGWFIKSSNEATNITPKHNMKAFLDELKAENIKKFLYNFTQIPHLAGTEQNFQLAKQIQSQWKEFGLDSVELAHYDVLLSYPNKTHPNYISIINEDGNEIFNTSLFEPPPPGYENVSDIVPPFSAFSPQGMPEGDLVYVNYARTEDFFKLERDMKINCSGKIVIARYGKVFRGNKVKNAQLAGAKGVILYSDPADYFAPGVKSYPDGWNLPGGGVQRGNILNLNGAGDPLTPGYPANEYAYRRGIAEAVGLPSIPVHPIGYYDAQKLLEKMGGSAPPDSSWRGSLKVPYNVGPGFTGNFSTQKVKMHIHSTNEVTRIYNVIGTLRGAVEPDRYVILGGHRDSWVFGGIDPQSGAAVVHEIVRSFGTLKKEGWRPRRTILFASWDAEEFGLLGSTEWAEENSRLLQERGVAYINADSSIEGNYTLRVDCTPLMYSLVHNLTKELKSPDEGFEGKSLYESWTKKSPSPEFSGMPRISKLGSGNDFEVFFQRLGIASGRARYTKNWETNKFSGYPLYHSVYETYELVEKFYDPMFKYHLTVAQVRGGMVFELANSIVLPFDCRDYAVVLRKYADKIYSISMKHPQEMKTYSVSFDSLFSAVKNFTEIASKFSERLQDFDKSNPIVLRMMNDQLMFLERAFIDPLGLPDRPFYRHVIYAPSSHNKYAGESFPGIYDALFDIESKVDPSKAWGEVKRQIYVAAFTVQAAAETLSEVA

purified extracellular domain of PSMA (prostate-specific membrane antigen), residues 44–750, sequence (Q04609 44-750): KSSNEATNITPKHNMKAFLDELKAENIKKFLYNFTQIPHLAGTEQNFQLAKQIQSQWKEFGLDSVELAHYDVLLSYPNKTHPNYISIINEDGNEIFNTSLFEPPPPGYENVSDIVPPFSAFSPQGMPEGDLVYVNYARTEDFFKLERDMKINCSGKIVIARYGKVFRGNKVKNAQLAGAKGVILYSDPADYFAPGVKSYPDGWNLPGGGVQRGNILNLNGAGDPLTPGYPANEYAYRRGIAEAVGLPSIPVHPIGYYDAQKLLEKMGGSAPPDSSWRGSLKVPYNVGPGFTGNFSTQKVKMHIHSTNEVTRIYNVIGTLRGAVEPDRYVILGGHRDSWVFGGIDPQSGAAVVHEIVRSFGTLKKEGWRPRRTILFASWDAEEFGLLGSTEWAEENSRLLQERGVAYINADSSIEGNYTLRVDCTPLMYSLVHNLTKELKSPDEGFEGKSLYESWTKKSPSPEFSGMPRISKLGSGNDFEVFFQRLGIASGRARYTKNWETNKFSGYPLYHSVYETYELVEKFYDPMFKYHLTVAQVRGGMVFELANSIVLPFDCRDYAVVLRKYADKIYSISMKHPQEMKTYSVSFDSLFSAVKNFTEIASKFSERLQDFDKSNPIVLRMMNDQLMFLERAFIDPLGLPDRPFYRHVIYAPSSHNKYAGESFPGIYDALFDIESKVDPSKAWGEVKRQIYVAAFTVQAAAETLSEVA

Binder	Kd [1]	koff [1]	kon [1]	whole-body NIR imaging of mice with PC3-PIP xenografts, AF680-labelled NB: duration until the fluorescent signal was no longer detected [2]
NB37 (VHH) VHH: QVQLQESGGGSVEAGGSLRLSCARSGWPYSTYSMNWFRQAPGKEREAVAGISSTMSGIIFAESKAGQFTISQDNAKNTVYLQMNNLKPEDTAIYYCAARRDYSLSSSSDDFDYWGQGTQVTVSS	3.4 nM	7.5e-05 s⁻¹	22000 M⁻¹ s⁻¹	24 h
NB8 (VHH) VHH: QVQLQESGGGSVQAGGSLRLSCARSGWPYSTYSMNWFRQAPGKEREAVAGISSTMSGIIFAESKAGQFTISQDNAKNTVYLQMNNLKPEDTAIYYCAARRDYSLSSSSDDFDYWGQGTQVTVSS	6 nM	0.00012 s⁻¹	20000 M⁻¹ s⁻¹	32 h
NB13 (VHH) VHH: QVQLQESGGGSVQTGGSLRLSCAASGYTASFSWIGYFRQAPGKEREGVAVINVGVGSTYYADSVKGRFTISRDNTENTISLEMNSLKPEDTGLYYCAGSLRWSRPPNPISEDAYNYWGQGTQVTVSS	0.6 nM	2.2e-05 s⁻¹	36000 M⁻¹ s⁻¹	32 h
NB7 (VHH) VHH: QVQLQESGGGSVQAGGSLRLSCTAPGYTDSNYYMSWFRQAPGKEREWVAGVNTGRGSTSYADSVKGRFTISQDNAKNTMFLQMNSLKPEDTAIYYCAVAACHFCDSLPKTQDEYILWGQGTQVTVSS	0.055 nM	3.9e-05 s⁻¹	710000 M⁻¹ s⁻¹	–
